B1: Mouse MAVS, endogenous, on mitochondria of wild-type MEFs and BMDCs (other, UniProt Q8VCF0 1-503, looked up)
chain: MTFAEDKTYKYIRDNHSKFCCVDVLEILPYLSCLTASDQDRLRASYRQIGNRDTLWGLFNNLQRRPGWVEVFIRALQICELPGLADQVTRVYQSYLPPGTSLRSLEPLQLPDFPAAVSGPSAFAPGHNIPDHGLRETPSCPKPVQDTQPPESPVENSEQLLQTNSGAVARMSGGSLIPSPNQQALSPQPSREHQEQEPELGGAHAANVASVPIATYGPVSPTVSFQPLPRTALRTNLLSGVTVSALSADTSLSSSSTGSAFAKGAGDQAKAATCFSTTLTNSVTTSSVPSPRLVPVKTMSSKLPLSSKSTAAMTSTVLTNTAPSKLPSNSVYAGTVPSRVPASVAKAPANTIPPERNSKQAKETPEGPATKVTTGGNQTGPNSSIRSLHSGPEMSKPGVLVSQLDEPFSACSVDLAISPSSSLVSEPNHGPEENEYSSFRIQVDESPSADLLGSPEPLATQQPQEEEEHCASSMPWAKWLGATSALLAVFLAVMLYRSRRLAQ
notes: Endogenous full protein on the outer mitochondrial membrane of mouse cells; also called MAVS-WT (MEF); endogenous MAVS
B2: His-tagged human MAVS-C79F expressed in MAVS-deficient MEFs (other, not shown: small tags and cut ends)
chain: MPFAEDKTYKYICRNFSNFCNVDVVEILPYLPCLTARDQDRLRATCTLSGNRDTLWHLFNTLQRRPGWVEYFIAALRGFELVDLADEVASVYQSYQPRTSDRPPDPLEPPSLPAERPGPPTPAAAHSIPYNSCREKEPSYPMPVQETQAPESPGENSEQALQTLSPRAIPRNPDGGPLESSSDLAALSPLTSSGHQEQDTELGSTHTAGATSSLTPSRGPVSPSVSFQPLARSTPRASRLPGPTGSVVSTGTSFSSSSPGLASAGAAEGKQGAESDQAEPIICSSGAEAPANSLPSKVPTTLMPVNTVALKVPANPASVSTVPSKLPTSSKPPGAVPSNALTNPAPSKLPINSTRAGMVPSKVPTSMVLTKVSASTVPTDGSSRNEETPAAPTPAGATGGSSAWLDSSSENRGLGSELSKPGVLASQVDSPFSGCFEDLAISASTSLGMGPCHGPEENEYKSEGTFGIHVAENPSIQLLEGNPGPPADPDGGPRPQADRKFQEREVPCHRPSPGALWLQVAVTGVLVVTLLVVLYRRRLH
notes: Expressed from vector pIRES in MAVS-KO MEFs; also called C79F variant; MAVS-C79F SNP
B3: Homo sapiens mitochondrial antiviral signaling protein (MAVS), endogenous wild-type, as oligomers in human PBMC and in plasma of SLE patients (other)
chain: PFAEDKTYKYICRNFSNFCNVDVVEILPYLPCLTARDQDRLRATCTLSGNRDTLWHLFNTLQRRPGWVEYFIAALRGCELVDLADEVASVYQSYQPRTSDRPPDPLEPPSLPAERPGPPTPAAAHSIPYNSCREKEPSYPMPVQETQAPESPGENSEQALQTLSPRAIPRNPDGGPLESSSDLAALSPLTSSGHQEQDTELGSTHTAGATSSLTPSRGPVSPSVSFQPLARSTPRASRLPGPTGSVVSTGTSFSSSSPGLASAGAAEGKQGAESDQAEPIICSSGAEAPANSLPSKVPTTLMPVNTVALKVPANPASVSTVPSKLPTSSKPPGAVPSNALTNPAPSKLPINSTRAGMVPSKVPTSMVLTKVSASTVPTDGSSRNEETPAAPTPAGATGGSSAWLDSSSENRGLGSELSKPGVLASQVDSPFSGCFEDLAISASTSLGMGPCHGPEENEYKSEGTFGIHVAENPSIQLLEGNPGPPADPDGGPRPQADRKFQEREVPCHRPSPGALWLQVAVTGVLVVTLLVVLYRRRLH
notes: Endogenous protein from donors; In some experiments labelled with Alx488 or Alx546; also called MAVS-WT; SLE MAVS oligomers

Key:
[1] = target: B3; assay: purified plasma oligomers incubated with purified mitochondria of MAVS-WT MEFs, mitochondria re-purified; immunoblot
[2] = target: the molecule itself; assay: self-oligomerization in reconstituted MAVS-KO MEFs; semi-denaturing TGX gel and immunoblot
[3] = target: the molecule itself; assay: self-oligomerization in human PBMC from healthy donors; semi-denaturing agarose gel and immunoblot
[4] = target: T1, His-tagged human MAVS-WT expressed in MAVS-deficient MEFs (human, UniProt Q7Z434 1-540, limits assumed); assay: plasma oligomers incubated with mitochondria of MAVS-KO MEFs expressing His-tagged human MAVS-WT; anti-His immunoblot
T1 construct: also called His-tagged human WT MAVS; not shown: N-terminal His-tag

[5] = target: B2; assay: plasma oligomers incubated with mitochondria of MAVS-KO MEFs expressing His-tagged human MAVS-C79F; anti-His immunoblot

B1: binds [1].

B2: binds [2].

B3: binds [3]; binds [4]; binds [5].

— patent publication US20190099470A1 (UNIVERSITY OF VERMONT AND STATE AGRICULTURAL COLLEGE, published 2019)
